Reference: US10064926B2, “Peptides and combination of peptides for use in immunotherapy against hepatocellular carcinoma (HCC) and other cancers” (Immatics biotechnologies GmbH, priority 2014, dated 2018)

What follows are substances tested against HLA-A*02 (Homo sapiens, UniProt P04439, D140Y/D185E/D98H/E176V/E277Q/G131W/G231S/I119V/I121R/I166T/I218V/N151K/N90K/P208A/P217A/Q86G/Q94H/R138H/R169H) (assay: UV-ligand exchange / peptide binding to MHC class I (beta2m ELISA)). Details: Table 10A; peptide exchange yield, UV-ligand exchange, β2m ELISA.
How it was run: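 Peptide-MHC complexes generated by UV-mediated exchange of a photocleavable ligand for the test peptide. Exchange yield measured by streptavidin-capture ELISA detecting β2m of stabilized complexes (HRP anti-β2m, TMB, 450 nm). Samples diluted 100-fold, quantified against refolded HLA-A*0201 monomer standards (15-500 ng/ml).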

| Substance | Peptide exchange (MHC class I binding score) |
| --- | --- |
| 220 (SLLEKELESV; listed as Homo sapiens) [compound 220] | +++ (50%-75% = +++) |
| 221 (ALCEENMRGV; listed as Homo sapiens) [compound 221] | +++ (50%-75% = +++) |
| 223 (FLFNTENKLLL; listed as Homo sapiens) [compound 223] | ++++ (>=75% = ++++) |

Same assay, conditions: Table 10B; peptide exchange yield; HLA-A*02 peptides

| Substance | Peptide exchange (MHC class I binding score) |
| --- | --- |
| 186 (VLLAQIIQV; listed as Homo sapiens) [compound 186] | “+++” (≥50 = +++) |
| 220 (SLLEKELESV; listed as Homo sapiens) [compound 220] | “+++” (≥50 = +++) |
| 221 (ALCEENMRGV; listed as Homo sapiens) [compound 221] | “+++” (≥50 = +++) |
| 222 (LTDITKGV; listed as Homo sapiens) [compound 222] | “++” (≥20% = ++) |
| 223 (FLFNTENKLLL; listed as Homo sapiens) [compound 223] | “++++” (≥75% = ++++) |
| 229 (KMFESFIESV; listed as Homo sapiens) [compound 229] | “+++” (≥50 = +++) |
| 231 (RLFNDPVAMV; listed as Homo sapiens) [compound 231] | “++++” (≥75% = ++++) |
| 233 (ALLGKLDAI; listed as Homo sapiens) [compound 233] | “++++” (≥75% = ++++) |
| 234 (YLEPYLKEV; listed as Homo sapiens) [compound 234] | “++++” (≥75% = ++++) |
| 235 (KLFEEIREI; listed as Homo sapiens) [compound 235] | “++++” (≥75% = ++++) |
| 236 (ALADKELLPSV; listed as Homo sapiens) [compound 236] | “+++” (≥50 = +++) |
| 237 (ALRGEIETV; listed as Homo sapiens) [compound 237] | “+++” (≥50 = +++) |
| 238 (AMPPPPPQGV; listed as Homo sapiens) [compound 238] | “++” (≥20% = ++) |
| 239 (FLLGFIPAKA; listed as Homo sapiens) [compound 239] | “+++” (≥50 = +++) |
| 240 (FLWERPTLLV; listed as Homo sapiens) [compound 240] | “+++” (≥50 = +++) |
| 241 (FVLPLLGLHEA; listed as Homo sapiens) [compound 241] | “++” (≥20% = ++) |
| 242 (GLFAPVHKV; listed as Homo sapiens) [compound 242] | “+++” (≥50 = +++) |
| 243 (GLLDNPELRV; listed as Homo sapiens) [compound 243] | “+++” (≥50 = +++) |
| 244 (KIAELLENV; listed as Homo sapiens) [compound 244] | “++++” (≥75% = ++++) |
| 245 (KLGAVFNQV; listed as Homo sapiens) [compound 245] | “++++” (≥75% = ++++) |
| 246 (KLISSYYNV; listed as Homo sapiens) [compound 246] | “+++” (≥50 = +++) |
| 247 (KLLDTMVDTFL; listed as Homo sapiens) [compound 247] | “++++” (≥75% = ++++) |
| 248 (KLNDLIQRL; listed as Homo sapiens) [compound 248] | “+++” (≥50 = +++) |
| 249 (LLLGERVAL; listed as Homo sapiens) [compound 249] | “++++” (≥75% = ++++) |
| 250 (NLAEVVERV; listed as Homo sapiens) [compound 250] | “++++” (≥75% = ++++) |
